Experimental data: US20110300138A1 (published 2011)

Assays:
[1] = molecular target: T1, full length human TSHR, detergent-solubilised, coated on tubes or ELISA plate wells (human, UniProt P16473 22-764); assay: inhibition of 125I-TSH binding to TSHR coated tubes, dilutions in assay buffer
T1 construct: Full length receptor expressed in CHO cells, solubilised with detergent and held on the plastic by a mouse MAb to the C-terminus; The leader 1-21 is stated for the TSHR260 construct of the same receptor; also called TSH receptor; TSHR (full length)
Experimental: Binding inhibition assays were carried out using TSHR coated tubes as described in WO2004/050708A2. […] After aspiration, the tubes were washed and 100 μL of ¹²⁵I-labelled protein (5×10⁴ cpm) added and incubated for 1 hour at room temperature with shaking. The tubes were then aspirated, washed and counted in a gamma counter. Inhibition of labelled protein binding was calculated as 100×[1−(cpm bound in the presence of test material/cpm bound in the presence of control material)].

[2] = molecular target: T1, full length human TSHR, …; assay: inhibition of 125I-TSH binding to TSHR coated tubes, dilutions in HBD sera
[3] = molecular target: human TSHR on transfected CHO cells (human, UniProt P16473 22-764); assay: cell-based or functional assay
TSHR260 = molecular target: T2, TSHR260 (human, UniProt P16473 22-260); assay: Scatchard analysis, TSHR260 coated tubes (mean±SD, n=3)
T2 construct: Expressed in insect cells; coated on tubes or wells by way of a mouse TSHR MAb (14C4 F(ab')2 in the stability ELISA); also called TSHR fragment of amino acids 22-260

[4] = molecular target: T1, full length human TSHR, …; assay: Scatchard analysis, 125I-labelled antibody on full length TSHR coated tubes (mean±SD, n=3)

B1: K1-18 IgG (antibody, V domains shown)
VH: EVQLVQSGAEVKKPGESLKISCKGSGYSFTNYWIGWVRQMPGKGLEWMGIIYPYDSDTRYSPSFEGQVTISADKSIRTAYLHWSSLKASDTAMYYCVRPRDGSYPYDAFDIWGQGTMVTVSS
VL: EIVLTQSPGTLSLSPGERATLSCRASQSVSNNYLAWYQQKPGQAPRLLIYGASSRATGIPDRFSGSGSGTDFTLTISRLEPEDFAVYYCQHCGSSLRAFGQGTKVEIKR
notes: Human IgG1 kappa purified from hetero-hybridoma supernatant; also called human MAb K1-18
[1]
  fold activity in inhibition of TSH binding against K1 donor serum IgG: 4700 times
[2]
  fold activity in inhibition of TSH binding against K1 donor serum IgG: 6600 times
[3]
  potency of TSHR cyclic AMP stimulation, M22 against K1-18: ~1.5 fold
TSHR260
  Ka: 5.9e+09 M⁻¹
[4]
  Ka: 6.7e+09 M⁻¹
